Molecular target: winged-helix domain 32C of human RPA (residues 172-270 of RPA2) (human, UniProt P15927 172-270)
Assay: NMR titration

Sequence of winged-helix domain 32C of human RPA (residues 172-270 of RPA2) (P15927 172-270): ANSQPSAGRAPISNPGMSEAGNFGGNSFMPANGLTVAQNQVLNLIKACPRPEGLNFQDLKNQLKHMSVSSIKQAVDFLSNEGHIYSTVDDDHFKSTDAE

B1: harmonin homology domain 2 (HHD2) of human RTEL1, residues 1056-1140 (domain or fragment)
chain: GQHAVSAYLADARRALGSAGCSQLLAALTAYKQDDDLDKVLAVLAALTTAKPEDFPLLHRFSMFVRPHHKQRFSQTCTDLTGRPY
B1: binds.
